# Laboratory results: US20230242902A1, “A HIGHLY ERROR-PRONE […] R[…] FOR TARGETED CONTINUOUS EVOLUTION IN VIVO” (The Regents of the University of California, priority 2017, published 2023)
# Legend:
# p2-delORF2-URA3 = test: Complementation of native TP-DNAP2 deletion (p2-delORF2-URA3 replication in trans); type: cell-based, S. cerevisiae
# Description: First, TP-DNAP2, which is ORF2 of p2, was deleted by homologous recombination of a synthetic cassette encoding URA3. Since p2 is a multi-copy plasmid, the resulting strain (GA-Y069) harbored a mixture of the parental wt p2 and the recombinant p2 with ORF2 deleted (p2-delORF2-URA3), along with unaltered p1. In this strain, both the wt p2 and recombinant p2-delORF2-URA3 plasmids rely on TP-DNAP2 encoded on the parental wt p2 plasmid for replication. Thus, loss of wt p2 should disable replication of p2-delORF2-URA3. […] Next, the same experiment was repeated in the presence of a codon-optimized TP-DNAP2 expressed in trans from a standard yeast CEN6/ARS4 nuclear plasmid (pGA55-reTP-DNAP2). […] Therefore, p2-derived plasmids can be replicated by TP-DNAP2 encoded on a standard nuclear plasmid, simplifying the characterization of p2 replication by error-prone TP-DNAP2 variants.
# p1-encoded leu2* = test: p1 leu2* fluctuation tests in AR-Y304 (p1 mutation rate reporter strain, mutual orthogonality); type: cell-based, S. cerevisiae; details: AR-Y304, noncognate polymerase in trans
# Description: Strains for testing mutual orthogonality were generated by transforming a panel of CEN6/ARS4 vectors encoding TP-DNAP1 or TP-DNAP2 variants into two base strains, AR-Y304 and GA-Y021. AR-Y304 (Ravikumar et al., 2014, Nature Chemical Biology, 10:175-177) contains recombinant p1 encoding mKate2, URA3 and leu2* without disturbing the native TP-DNAP1 ORF. Similarly, GA-Y021 encodes recombinant p2 that replaces ORF1 with mKate2, URA3 and leu2* without disturbing the native TP-DNAP2 ORF.
# To precisely measure p1 and p2 per-base substitution mutation rates, several modifications were made to the small-scale protocol. First, 36 replicates were performed for reconfirmation of candidate TP-DNAP2 mutators, and 48 replicates for genomic and mutual orthogonality experiments. Titers were also determined for each strain after spot plating by pooling the residual volume from 4 replicates and plating dilutions on YPD. The expected number of LEU2 functional mutants (m) was determined by the Ma-Sandri-Sarkar maximum likelihood estimator (as calculated by the FALCOR tool and corrected for partial plating (Foster, 2006, Methods Enzymol, 409:195-213; Sarkar et al., 1992, Genetica, 85:173-179; Hall et al., 2009, Bioinformatics, 25:1564-1565). The mean mKate2 fluorescence was determined from 50,000 event counts on Attune™ NxT Flow Cytometer and converted to p2 copy number by using a calibration curve. To determine per-base substitution rates, the corrected m was normalized to the average cell titer, the p2 copy number, and the target size for functional leu2* reversion (2.33 bp). 95% confidence intervals were similarly scaled.
# To test whether the replication mechanisms of p1 and p2 are mutually orthogonal in vivo, p1 and p2 mutation rates were measured in the presence of a panel of TP-DNAP1 and TP-DNAP2 variants with varying mutation rates. Changes in p1 or p2 mutation rate induced by TP-DNAP variants would therefore signal a degree of cross-replication between TP-DNAP1/p1 and TP-DNAP2/p2, if any. A panel of six polymerases was introduced on CEN6/ARS4 vectors into two separate base strains, AR-Y304 (p1 mutation rate reporter strain) and GA-Y021 (p2 mutation rate reporter strain), encoding mKate2, URA3, and leu2* on either p1 or p2, respectively. Included in this panel were TP-DNAP1^WT and two error-prone TP-DNAP1 variants found in previous screens: TP-DNAP1^1777K, L900S and TP-DNAP1^L477V, L640Y, I777K, W814N. Also included were TP-DNAP2^WT and the error-prone TP-DNAP2^S370Q and TP-DNAP2^Y424Q variants found in this work. In AR-Y304 and GA-Y021, both p1 and p2 still encode their native wt TP-DNAP's. Any contribution to replication by a third TP-DNAP encoded in trans is monitored by detecting changes in linear plasmid mutation rate. Importantly, these experiments afford each DNAP an opportunity to replicate its native plasmid and lose its attached TP, becoming “spent” and perhaps more likely to replicate its noncognate linear plasmid through DNAP exchange (Klassen and Meinhardt, 2007, Linear Protein-Primed Replicating Plasmids in Eukaryotic Microbes, in Microbial Linear Plasmids, pp 1 87-226. Springer, Berlin, Heidelberg). The presence of TP-DNAP1^WT or TP-DNAP2^WT in trans had no effect on their noncognate linear plasmids' mutation rate. […] Likewise, p1 mutation rate was unaltered in the presence of mutagenic TP-DNAP2^S370Q and TP-DNAP2^Y424Q, which increased p2 mutation rate by 29- and 16-fold, respectively (FIG. 9). Thus, TP-DNAP1 replicates p1 with at least 870-fold specificity over p2, while TP-DNAP2 targets p2 with at least 29-fold specificity over p1. The level of mutual orthogonality measured here is limited by the error-rates of DNAPs used, especially that of TP-DNAP2 variants.
Molecule,ability to complement deletion of native TP-DNAP2 and sustain p2-delORF2-URA3 replication (p2-delORF2-URA3),change in p1 mutation rate by TP-DNAP2 (p1-encoded leu2*)
"S370Q: TP-DNAP2 variant (protein, listed as Kluyveromyces lactis) MNDELAFLNSQIDDYSDDIEFLRTEVFRINRYSKSIYSLMKNSSKEAIKETIEFNKYGQEIHSKIKEKEISLIEAIKLMEKKYKYLRSLNKTKDKSKKKKIHTKDIETLKTIYKTKADFDIRNFKNAETFTYENYSLLIPSEKELIDLIPEIEEDYSYYFYVSLTITGPTIFGGVTRKVPIIDTYGDINKDFYNKIKENITKVLDRVPFYEEKESEIICKKVLITLTVNKWESIDKWYKNVKSKSKKFKDFTLFLASDTSKNCVQQCVEYLGGKWNTNYSLEKMIPQQKIVTYIPLLMDIQYVQSMEDLISDFDEPNTDCKNIARLLKWNGHMGVITKIDKDVKINRIQRKRIIDVENKEVKEVFFDIEQFSDETKHQIPYLICWSYLGELYYRTGKNCIKEFVEEILSYNVDIILYAWYGSGYDYQHVLPYMKSKCIKDKYIIKNNMITYGELYYENAIIYLKDPYLFILTSLDKASKAFNVINKGEFPHSIIHSWEDLNKILPNWVKIQKRMIEYKDDNKLNIYYKNIEIFENDRNYNTILENAIEYCKVDVLAMEKVWIKFKKLLEKNLNITVSVKTFTLSQLSMKIMESKLPKYVKLYVPTLEEYSKIRNAIYGGRVISKNGIYEENIVYADVVSLYPSAMKLLKHSYGKPKLVDYIDFEKHGIYRVTLLNKHDQEPKNYLNFVPRRINRKLTWEWFKIHEGWYHTYDLIIAKSEGFDIYCHEGFEYPEKDYIFNDFIDTLYSMKETHTACSCEEQPCPIRMVAKIALNGGGYGKFVQKPIDKEIYIVKRDVVAGECDKLQENENGEICIGKRLVKRPLFYNLDSENYDKMIIEKEDEPIYSTQCGISILSASRYRLYKLCKQFENIDIIYSDTDSIFVKQKSVDWELFKSKCGSELGQLDSTIDDTKNAIISKMYIGGAKMYAFEYLNNKNKLITKLHCKGVPNYMLSLNQFKYLMESPDNTIAYKFEIIRRKLVNVITKDLIKDIKQT",not active enough to fully complement a deletion of the native TP-DNAP2,unaltered
"Y424Q: TP-DNAP2 variant (protein, listed as Kluyveromyces lactis) MNDELAFLNSQIDDYSDDIEFLRTEVFRINRYSKSIYSLMKNSSKEAIKETIEFNKYGQEIHSKIKEKEISLIEAIKLMEKKYKYLRSLNKTKDKSKKKKIHTKDIETLKTIYKTKADFDIRNFKNAETFTYENYSLLIPSEKELIDLIPEIEEDYSYYFYVSLTITGPTIFGGVTRKVPIIDTYGDINKDFYNKIKENITKVLDRVPFYEEKESEIICKKVLITLTVNKWESIDKWYKNVKSKSKKFKDFTLFLASDTSKNCVQQCVEYLGGKWNTNYSLEKMIPQQKIVTYIPLLMDIQYVQSMEDLISDFDEPNTDCKNIARLLKWNGHMGVITKIDKDVKINRIQRKRIIDVENKEVKEVFFDIESFSDETKHQIPYLICWSYLGELYYRTGKNCIKEFVEEILSYNVDIILYAWYGSGQDYQHVLPYMKSKCIKDKYIIKNNMITYGELYYENAIIYLKDPYLFILTSLDKASKAFNVINKGEFPHSIIHSWEDLNKILPNWVKIQKRMIEYKDDNKLNIYYKNIEIFENDRNYNTILENAIEYCKVDVLAMEKVWIKFKKLLEKNLNITVSVKTFTLSQLSMKIMESKLPKYVKLYVPTLEEYSKIRNAIYGGRVISKNGIYEENIVYADVVSLYPSAMKLLKHSYGKPKLVDYIDFEKHGIYRVTLLNKHDQEPKNYLNFVPRRINRKLTWEWFKIHEGWYHTYDLIIAKSEGFDIYCHEGFEYPEKDYIFNDFIDTLYSMKETHTACSCEEQPCPIRMVAKIALNGGGYGKFVQKPIDKEIYIVKRDVVAGECDKLQENENGEICIGKRLVKRPLFYNLDSENYDKMIIEKEDEPIYSTQCGISILSASRYRLYKLCKQFENIDIIYSDTDSIFVKQKSVDWELFKSKCGSELGQLDSTIDDTKNAIISKMYIGGAKMYAFEYLNNKNKLITKLHCKGVPNYMLSLNQFKYLMESPDNTIAYKFEIIRRKLVNVITKDLIKDIKQT",not active enough to fully complement a deletion of the native TP-DNAP2,unaltered
